# T1: CD133 on CD44- and CD133-positive glioma stem cells GSC20 (UniProt O43490 20-865, limits assumed)
# T1 sequence (looked up): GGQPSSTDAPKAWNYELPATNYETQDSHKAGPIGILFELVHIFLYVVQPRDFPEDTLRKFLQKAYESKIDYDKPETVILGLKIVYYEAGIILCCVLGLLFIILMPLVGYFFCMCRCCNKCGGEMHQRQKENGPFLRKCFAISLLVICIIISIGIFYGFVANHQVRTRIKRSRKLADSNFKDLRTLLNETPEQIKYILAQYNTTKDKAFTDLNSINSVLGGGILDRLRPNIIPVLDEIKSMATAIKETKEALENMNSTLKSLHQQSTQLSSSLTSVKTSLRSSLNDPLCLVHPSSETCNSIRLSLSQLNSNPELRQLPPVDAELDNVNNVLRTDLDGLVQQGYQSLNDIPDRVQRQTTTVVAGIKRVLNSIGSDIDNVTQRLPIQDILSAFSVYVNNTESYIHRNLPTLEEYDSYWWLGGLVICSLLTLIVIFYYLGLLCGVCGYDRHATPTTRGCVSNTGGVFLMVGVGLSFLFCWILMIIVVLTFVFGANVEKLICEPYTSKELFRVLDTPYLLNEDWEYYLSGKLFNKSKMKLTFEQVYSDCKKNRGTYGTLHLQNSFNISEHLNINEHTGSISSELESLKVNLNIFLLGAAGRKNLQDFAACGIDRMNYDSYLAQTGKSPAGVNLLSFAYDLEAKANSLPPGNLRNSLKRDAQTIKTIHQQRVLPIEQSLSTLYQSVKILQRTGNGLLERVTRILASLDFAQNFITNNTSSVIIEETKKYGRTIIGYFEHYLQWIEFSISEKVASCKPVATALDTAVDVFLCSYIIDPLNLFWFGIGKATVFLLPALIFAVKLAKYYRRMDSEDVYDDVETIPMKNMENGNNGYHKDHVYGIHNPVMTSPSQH
# Biological target: T1, CD133 on CD44- and CD133-positive …
# Experiment: cell-based or functional assay
"Lysis rate of glioma stem cells GSC20 by CAR-T cells (LDH release, 4 h), effect-target ratio 1:1","Lysis rate of glioma stem cells GSC20 by CAR-T cells (LDH release, 4 h), effect-target ratio 2:1","Lysis rate of glioma stem cells GSC20 by CAR-T cells (LDH release, 4 h), effect-target ratio 3:1","Lysis rate of glioma stem cells GSC20 by CAR-T cells (LDH release, 4 h), effect-target ratio 5:1",Binder
31.4%,36.8%,69.6%,87.2%,"fusion protein shown in SEQ ID NO. 6 (anti-CD133 single-chain antibody, CD28, truncated body of IL7Rα, CD3, T2A, anti-TIM3 single-chain antibody), expressed in … (other) QVQLVQSGAEVKKPGASVKVSCKASGYTFTDFEMHWVRQAPGQGLEWMGDIDPGTGDTAYNLKFKGRVTMTTDTSTSTAYMELRSLRSDDTAVYYCALGAFVYWGQGTLVTVSSGSTSGGGSGGGSGGGGSSDVVMTQSPLSLPVTPGEPASISCRSSQSLANSYGNTYLSWYLQKPGQSPQLLIYGISNRFSGVPDRFSGSGSGTDFTLKISRVEAEDVGVYYCLQGTHQPYTFGQGTKLEIKTTTPAPRPPTPAPTIASQPLSLRPEACRPAAGGAVHTRGLDFACDIYIWAPLAGTCGVLLLSLVITLYCRSKRSRLLHSDYMNMTPRRPGPTRKHYQPYAPPRDFAAYRSKKRIKPIVWPSLPDHKKTLEHLCKKPRKNLNVSFNPESFLDCQIHRVDDIQARDEVEGFLQDTFPQQLEESEKQRLLGSNQEEAYVTMSSFYQNQRVKFSRSADAPAYKQGQNQLYNELNLGRREEYDVLDKRRGRDPEMGGKPRRKNPQEGLYNELQKDKMAEAYSEIGMKGERRRGKGHDGLYQGLSTATKDTYDALHMQALPPREGRGSLLTCGDVEENPGPMTNKCLLQIALLLCFSTTALSQVQLQQSGPGLVKPSHTLSLTCTVSGGSISSGGYYWSWTRQHPGMGLEWIGYISYSGSIYYTPSLKSRLTISVDTSKNQFSLKLSSVTAADTAVYYCASLDSWGSNRDYWGQGTLVTVSSGGGGSEIVLTQSPATLSLSPGERATLSCRASQSVSSYLAWYQQKPGQAPRLLIYDASNRATGIPARFSGSGSGTDFTLTISSLEPEDFAVYYCQQRSNWPLTFGGGTKVEIK"
16.9%,20.3%,35.3%,49.5%,"fusion protein shown in SEQ ID NO. 5 (anti-CD133 single-chain antibody, CD28, CD3, T2A, anti-TIM3 single-chain antibody), expressed in CAR-T 3 cells (other) QVQLVQSGAEVKKPGASVKVSCKASGYTFTDFEMHWVRQAPGQGLEWMGDIDPGTGDTAYNLKFKGRVTMTTDTSTSTAYMELRSLRSDDTAVYYCALGAFVYWGQGTLVTVSSGSTSGGGSGGGSGGGGSSDVVMTQSPLSLPVTPGEPASISCRSSQSLANSYGNTYLSWYLQKPGQSPQLLIYGISNRFSGVPDRFSGSGSGTDFTLKISRVEAEDVGVYYCLQGTHQPYTFGQGTKLEIKTTTPAPRPPTPAPTIASQPLSLRPEACRPAAGGAVHTRGLDFACDIYIWAPLAGTCGVLLLSLVITLYCRSKRSRLLHSDYMNMTPRRPGPTRKHYQPYAPPRDFAAYRSRVKFSRSADAPAYKQGQNQLYNELNLGRREEYDVLDKRRGRDPEMGGKPRRKNPQEGLYNELQKDKMAEAYSEIGMKGERRRGKGHDGLYQGLSTATKDTYDALHMQALPPREGRGSLLTCGDVEENPGPMTNKCLLQIALLLCFSTTALSQVQLQQSGPGLVKPSHTLSLTCTVSGGSISSGGYYWSWTRQHPGMGLEWIGYISYSGSIYYTPSLKSRLTISVDTSKNQFSLKLSSVTAADTAVYYCASLDSWGSNRDYWGQGTLVTVSSGGGGSEIVLTQSPATLSLSPGERATLSCRASQSVSSYLAWYQQKPGQAPRLLIYDASNRATGIPARFSGSGSGTDFTLTISSLEPEDFAVYYCQQRSNWPLTFGGGTKVEIK"

# Continued, binder first:
Binder,"Lysis rate of glioma stem cells GSC20 by CAR-T cells (LDH release, 4 h), effect-target ratio 1:1","Lysis rate of glioma stem cells GSC20 by CAR-T cells (LDH release, 4 h), effect-target ratio 2:1","Lysis rate of glioma stem cells GSC20 by CAR-T cells (LDH release, 4 h), effect-target ratio 3:1","Lysis rate of glioma stem cells GSC20 by CAR-T cells (LDH release, 4 h), effect-target ratio 5:1"
"fusion protein shown in SEQ ID NO. 3 (anti-CD133 single-chain antibody, CD28, CD3), expressed on CAR-T 1 cells (other) QVQLVQSGAEVKKPGASVKVSCKASGYTFTDFEMHWVRQAPGQGLEWMGDIDPGTGDTAYNLKFKGRVTMTTDTSTSTAYMELRSLRSDDTAVYYCALGAFVYWGQGTLVTVSSGSTSGGGSGGGSGGGGSSDVVMTQSPLSLPVTPGEPASISCRSSQSLANSYGNTYLSWYLQKPGQSPQLLIYGISNRFSGVPDRFSGSGSGTDFTLKISRVEAEDVGVYYCLQGTHQPYTFGQGTKLEIKTTTPAPRPPTPAPTIASQPLSLRPEACRPAAGGAVHTRGLDFACDIYIWAPLAGTCGVLLLSLVITLYCRSKRSRLLHSDYMNMTPRRPGPTRKHYQPYAPPRDFAAYRSRVKFSRSADAPAYKQGQNQLYNELNLGRREEYDVLDKRRGRDPEMGGKPRRKNPQEGLYNELQKDKMAEAYSEIGMKGERRRGKGHDGLYQGLSTATKDTYDALHMQALPPR",6.53%,26%,33.5%,41.4%
"fusion protein shown in SEQ ID NO. 4 (anti-CD133 single-chain antibody, CD28, truncated body of IL7Rα, CD3), expressed on CAR-T 2 cells (other) QVQLVQSGAEVKKPGASVKVSCKASGYTFTDFEMHWVRQAPGQGLEWMGDIDPGTGDTAYNLKFKGRVTMTTDTSTSTAYMELRSLRSDDTAVYYCALGAFVYWGQGTLVTVSSGSTSGGGSGGGSGGGGSSDVVMTQSPLSLPVTPGEPASISCRSSQSLANSYGNTYLSWYLQKPGQSPQLLIYGISNRFSGVPDRFSGSGSGTDFTLKISRVEAEDVGVYYCLQGTHQPYTFGQGTKLEIKTTTPAPRPPTPAPTIASQPLSLRPEACRPAAGGAVHTRGLDFACDIYIWAPLAGTCGVLLLSLVITLYCRSKRSRLLHSDYMNMTPRRPGPTRKHYQPYAPPRDFAAYRSKKRIKPIVWPSLPDHKKTLEHLCKKPRKNLNVSFNPESFLDCQIHRVDDIQARDEVEGFLQDTFPQQLEESEKQRLLGSNQEEAYVTMSSFYQNQRVKFSRSADAPAYKQGQNQLYNELNLGRREEYDVLDKRRGRDPEMGGKPRRKNPQEGLYNELQKDKMAEAYSEIGMKGERRRGKGHDGLYQGLSTATKDTYDALHMQALPPR",16.3%,28%,39.6%,43.4%

# Reference: US20230310603A1 (BEIJING NEUROSURGICAL INSTITUTE, published 2023)
